Assay results taken from paper PMC2897766.

How the values were obtained:
[1] = target: Ire1^bipless, GFP- and mCherry-tagged copies (FRET pair) (yeast) (UniProt P32361); test: FRET or BRET; microscopy-based FRET (spinning disc confocal) between GFP- and mCherry-tagged copies co-expressed in live yeast cells; untreated cells (no DTT)
[2] = target: Ire1^bipless, GFP- and mCherry-tagged copies (FRET pair) (yeast) (UniProt P32361); test: FRET or BRET; microscopy-based FRET (spinning disc confocal) between GFP- and mCherry-tagged copies co-expressed in live yeast cells; cells treated with 5 mM DTT for 4 h (for Ire1^bipless only 'in the presence of DTT' is printed)

Substance “Ire1^bipless, GFP- and mCherry-tagged copies (FRET pair) (from UniProt P32361 19-474; P32361 527-1115) (natural protein)” has an FRET signal [1] of 0.17 a.u and an FRET signal [2] of 0.71 a.u.
